The series in a line: soluble on expression in E. coli; label from the status in PepcDB or PDB records.
Turning to “MSLTKNKFDNRADKLGESWDLLNKEGRKIGLKHRGEPFKPGEWHSLVNASIFNYQHEILMQQRSFNKIGRPGEWDFETGGSVLASEDSLTAIKREVKEEVGLELNFSEENFVETFRNWPVFDNWYVIKADLSIKDIRIQKSELEQAKFMPFDQAIKYLSSNYLPYLLKAYKKLFGGENEGHHHHHH”, the “soluble on expression in E. coli” value is reported as “not soluble”.

Take “MSYQVTTLQARKDMARARLGQIPLPRITHIAFGTGGHLPGDVLTPVKPSETATSLEQEVARFPIASAVLKNDTTVEYKVVIPKGALSGVVLTEQALIDQNGKVVAIKTFGAKKKEPEDEFTFTWEEDF”: the “soluble on expression in E. coli” value is “not soluble”.

Consider “MLQNRLNKARSHAEKHDVDAIVFFNMSNVRYLSGFTGSDGAVVLGRDASWFLTDSRYTTQASRQVVGLPTVEYRIKLDGITELVREQGFRRIGFESEHTAFAVYESLRQKLPKTELVPIGEELAQLRLIKDPSECELLSRVARLASEALLSILPLVKPGAVERELALELEFAMRRAGAENASFDFIVASGERGSLPHGRASDKALAAGELVTIDFGARYEGYCSDETVTVAVGVPDERQCQIYGIVKEAHDRAIAAVRPGAELREIDRIARGYIEEQGYGAFFGHGLGHGVGLDVHEKPVVSPRGEGVAAVGMVFTIEPGIYIPGWGGVRIEDTVIVTEDGCRPITMIPKELMIL”, for which the “soluble on expression in E. coli” value is on record as “not soluble”.

Consider “MVDKGVKIKVDYIGKLESGDVFDTSIEEVAKEAGIYAPDREYEPLEFVVGEGQLIQGFEEAVLDMEVGDEKTVKIPAEKAYGNRNEMLIQKIPRDAFKEADFEPEEGMVILAEGIPATITEVTDNEVTLDFNHELAGKDLVFTIKIIEVVE”, for which the “soluble on expression in E. coli” value is “soluble”.

Take “MGHHHHHHSHMSEESDMDKAIKETSILEEYSINWTQKLGAGISGPVRVCVKKSTQERFALKILLDRPKARNEVRLHMMCATHPNIVQIIEVFANSVQFPHESSPRARLLIVMEMMEGGELFHRISQHRHFTEKQASQVTKQIALALRHCHLLNIAHRDLKPENLLFKDNSLDAPVKLCDFGFAKIDQGDLMTPQFTPYYVAPQVLEAQRRHQKEKSGIIPTSPTPYTYNKSCDLWSLGVIIYVMLCGYPPFYSKHHSRTIPKDMRRKIMTGSFEFPEEEWSQISEMAKDVVRKLLKVKPERRLTIEGVLDHPWLNSTEALDNVLPSAQLMMDKAVVAGIQQAHAEQLANMRIQDLKVSLKPLHSVNNPILRKRKLLGTKPKDSVYIHDHENGAEDSNVALEKLRDVIAQCILPQAGENEDEKLNEVMQEAWKYNRECKLLRDTLQSFSWNGRGFTDKVDRLKLAEIVKQVIEEQTTSHESQ”: the “soluble on expression in E. coli” value is “not soluble”.

With “DFGKAMYIDNPRDHAVKHFSKVYQCQSADDVQAVKKKLYDDKTAIIEKVAEQTKSFDVASTQVSGRSLKGSIDVPTLPALPQPETRQGAPKLSVLISSAQEAMLCEYQDIDVYYQLPMGLSGELSAMIELFQANPMLKPWFPAILIGEDYQAARVFLETIQPELLITNNSGVGMITKELGLGWVAGPQMNTVNSYAFKCLQDEFAASGAFVSNELNMKQMRHIKRPKNMRSFYSIYHPNTLLTSRQCLFQQTEGCRKVKVNKGCLKRCDKRTSIINLKDNPYVVQKQKGSHNSIYSEHNVLNLQVLHDLPQLFTDVLIDLRDIQTETKVSASKPELIDAFLALLEDHSEQAIQTLNAMIQPTANAQYLKGL”, the “soluble on expression in E. coli” value was “not soluble”.

“MPAFVERTPSAEVPRQVLRPHAEHAFAAELASLAGQDDRPRPARWRLSPWAVATYLLGGTLPDGTVITPKYVGPRRVVEVAVTTLATDRALLLLGVPGTAKTWVSEHLAAAVSGDSTLLVQGTAGTPEEAIRYGWNYARLLAHGPGRDALVPSPVMRAMTEGATVRVEELTRIPADVQDSLITLLSEKTLPIPELGEEVQAVRGFNLIATANDRDRGVNDLSSALRRRFNTVVLPLPESAEAEVDIVTRRVDQIGRSLDLPSAPDGTDEIRRVVTVFRELRDGLTSDGRTKVKSPSGPLSTAEAISVVTGGLALCAHFGDGVLRAGDLAAGVLGAVVRDPGTDRVVWQEYLETVVREREGWQDFYRACREVTALEHHHHHH”: the “soluble on expression in E. coli” value is listed as “not soluble”.

For the sequence “MAHHHHHHMYLLQCEKKKKQKGKGQIGLTQVEYIGKPLIGGDFTLINHDGKVVTNEDFKKKFCLIYFGFTYCPDICPQELEKQTIVIERIVKKYGDVITPVFISVDPNRDTLAQVKHYCSSFSDRLVGLTGTKEQIRRVAKLFRVYYNEHVVGEEQTEEQTEKQKERQTDTQTEAQSGDPPRAPSYNYLIDHSIIHYLLDADGKFVDFFGKNCTTSEMVERISHYVDLHLQ”, the “soluble on expression in E. coli” value is “not soluble”.

With “YAGLSRFTLSYHNVEYKLFGYGTILNNTNFPGGSSGSAVFNKEKQLTSIYFGSLINVTTGNNRNVNLGLGQILRTYNTNNSKHS”, the “soluble on expression in E. coli” value is given as “not soluble”.

Consider “MGRARDAILDALENLTAEELKKFKLQAATHQGSGAAPAGIQAPPQSAAKPGLHFIDQHRAALIARVTNVEWLLDALYGKVLTDEQYQAVRAEPTNPSKMRKLFSFTPAWNWTCKDLLLQALRESQSYLVEDLERS”, for which the “soluble on expression in E. coli” value is listed as “soluble”.

In the case of “MVARSEEIVIVEEDTTAKCLMLLSRVGECGGGCGGDERVFRCKTCLKEFSSFQALGGHRASHKKLINSDNPSLLGSLSNKKTKTSHPCPICGVKFPMGQALGGHMRRHRNEKVSGSLVTRSFLPETTTVTALKKFSSGKRVACLDLDLDSMESLVNWKLELGRTISWS”, the “soluble on expression in E. coli” value is “not soluble”.

For the sequence “MGSDKIHHHHHHMRNTAVAEQPASVPAMSRLTRQRLHDTVVEYLRDYIVKGVLAPGVKLNERELCETLGISRTPLREAIKVLAAEGLIEISANRGAAVTKLAESEIDEMFELMSGLEAFAGELACERITPHEIAEIKALHYAMVACREREDLSGYYGYNQQIHDRINGAARNCALRQTYLSINRRLQAMRFKSNFHKSKRDHAVHDHEEMIKALESRDGKRLSAILRQHLLDKRDVVLVTLATARETPATGGR”, the “soluble on expression in E. coli” value is “not soluble”.

For “MNKYQAVIIGFGKAGKTLAVTLAKAGWRVALIEQSNAMYGGTCINIGCIPTKTLVHDAQQHTDFVRAIQRKNEVVNFLRNKNFHNLADMPNIDVIDGQAEFINNHSLRVHRPEGNLEIHGEKIFINTGAQTVVPPIPGITTTPGVYDSTGLLNLKELPGHLGILGGGYIGVEFASMFANFGSKVTILEAASLFLPREDRDIADNIATILRDQGVDIILNAHVERISHHENQVQVHSEHAQLAVDALLIASGRQPATASLHPENAGIAVNERGAIVVDKRLHTTADNIWAMGDVTGGLQFTYISLDDYRIVRDELLGEGKRSTDDRKNVPYSVFMTPPLSRVGMTEEQARESGADIQVVTLPVAAIPRARVMNDTRGVLKAIVDNKTQRMLGASLLCVDSHEMINIVKMVMDAGLPYSILRDQIFTHPSMSESLNDLFSLVK”, the “soluble on expression in E. coli” value is reported as “soluble”.

Consider “MGSDKIHHHHHHMTKRAVVAGINDYRNWNSVGFGNLSWCLTDAQSFAEDVLVHGRGFRPDDITVLLDRDATRTNILEHLRRLLARADLGDVICLYFSGHGDRAQVPGTPSEWHETIVPYDGAAMISDHEINALIAGLEFNRLNLTLVLDSCHSGGVYDPAPPQGSKVAQWGEDKLGALVSTCKTILPTICAQTVDPFVNNIQAILRAVDSATMTVDGAKDTAETAKATLFSACDFDETAKENPTLRHGFMTKALLDTVTQSAFKMPNRLLASDLRGKVAAFVSQFGTSQQTPCLRGRPVRQDEDFLTEWTFSI”, for which the “soluble on expression in E. coli” value was “not soluble”.

For the sequence “MAIQHPDIQPAVNHSVQVAIAGAGPVGLMMANYLGQMGIDVLVVEKLDKLIDYPRAIGIDDEALRTMQSVGLVDDVLPHTTPWHAMRFLTPKGRCFADIQPMTDEFGWPRRNAFIQPQVDAVMLEGVSRFPNVRCLFSRELEAFSQQDDEVTLHLKTAEGQREIVKAQWLVACDGGASFVRRTLNVPFEGKTAPNQWIVVDIANDPLSTPHIYLCCDPVRPYVSAALPHAVRRFEFMVMPGETEEQLREPQNMRKLLSKVLPNPDNVELIRQRVYTHNARLAQRFRIDRVLLAGDAAHIMPVWQGQGYNSGMRDAFNLAWKLALVIQGKARDALLDTYQQERRDHAKAMIDLSVTAGNVLAPPKRWQGTLRDGVSWLLNYLPPVKRYFLEMRFKPMPQYYGGALMREGEAKHSPVGKMFIQPKVTLENGDVTLLDNAIGANFAVIGWGCNPLWGMSDEQIQQWRALGTRFIQVVPEVQIHTAQDNHDGVLRVGDTQGRLRSWFAQHNASLVVMRPDRFVAATAIPQTLGKTLNKLASVMTLTRPDADVSVEKVA”, the “soluble on expression in E. coli” value was “soluble”.

Take “MNSSTENVTLKLKSEQLDIAKQWIQTEDVKAYKETSSIQKTFTIPVEREELVIEKIPTASDDKKEVIRIPLSEEEVNFSKHRIILEDVSIYKNQIEDVRHIEETLKKENPKIETFGNAKVIKKLEHHHHHH”: the “soluble on expression in E. coli” value is listed as “not soluble”.

As to “DYQIQISISDISEDRTEHQFTSNPEVKTPVGFEQHVESIPEMEDFGLSAAELMDESVPSDFQLDIGLVDDFLEIPSHETEVPQPKVASMQPDTNAKSQKPTVHRGELEAFIYGMGIDPNMVPSQNREQWFEQLGQSFSLMLIGLMETLHNRAVFKQTNRVNHTAFRKSENNPLKFSANLEDAIHNLYNRQTSSFLKPNAAIKEAFNDIENHEQALMQGVAGTVSSVMSLVEPNTIYSDALAKDNVINKVIPARKYAQSWKRFEGIHSQLTDELVNKESPFYLEDFAKHYELALKNKG”, the “soluble on expression in E. coli” value is given as “not soluble”.

Turning to “MPQPEQLPGPNADIWNWQLQGLCRGMDSSMFFHPDGERGRARTQREQRAKEMCRRCPVIEACRSHALEVGEPYGVWGGLSESERDLLLKGTMGRTRGIRRTA”, the “soluble on expression in E. coli” value is given as “not soluble”.

As to “MIRHRFSAEDFHRMAEAGILGEDDRVELIRGEVVELSPVGKRHMAALKRLMNALFPLQQAKKALLQVQDPLRLFPDTEPQPDLALLAYRDDFYRERVPEAKDALLVVEVAETSLDHDLQVKLPLYAQAGIPEVWVVDLVREKVHVFRKPQGEGYGEAQALEDGELSVLGLKVPVKEVLP”, the “soluble on expression in E. coli” value was “soluble”.

“MGSDKIHHHHHHMKLLYFKEHLSCINYQINVNTGFVYYNLEKDSVSKIDNSASPCILFLLDGEVSIDSGEYQNVHIEKDKMVLIPQHVDNKIEVIYDAKCLLLFWNKDIRVCDKVYMNSLSSYKERKKEMCVLPIRDPLQAVLNSVVAYLYAKMQCKHMHLIKQQEVLLVLRGYYTKKELFTFFSSILGNTGHFEDFVMNNYRKVKSVKEFAGLYCTSERSFNRKFQNCFKESPYQWMQKKKAELIREKISESDTPFQEIAMDFDFNSQAHFTSYCKRLFGMTPSKLRTESKKVAPDLEY”: the “soluble on expression in E. coli” value is given as “not soluble”.

Turning to “SPLEQRSQHCKPEEGLEARGEALGLVGAQAPATEEQEAASSSSTLVEVTLGEVPAAESPDPPQSPQGASSLPTTMNYPLWSQSYEDSSNQEEEGPSTFPDLESEFQAALSRKVAKLVHFLLLKYRAREPVTKAEMLGSVVGNWQYFFPVIFSKASDSLQLVFGIELMEVDPIGHVYIFATCLGLSYDGLLGDNQIMPKTGFLIIILAIIAKEGDCAPEEKIWEELSVLEVFEGREDSIFGDPKKLLTQYFVQENYLEYRQVPGSDPACYEFLWGPRALIETSYVKVLHHMVKISGGPRISYPLLHEWALREGEE”, the “soluble on expression in E. coli” value is “soluble”.

With “MGSDKIHHHHHHMMKTDYVFCVDSDGCAMDTMTYKHKLFFGPLAADVFDVKDREPFLAEWNRVNLYSRERGINRFVGLVKGLDFAGVTGIDNLKNWVATTDSLSNASLERLIEETPSKDLELALEWSTQVNQAIKHYSGPVLAFIGVHKGLEKLSQLGKVYVVSSANKEAVEEEWTDQGLLDFVTELYCQDRGKKEDVIKILIEEGYCPDKIMMIGDSPGDLKAAELNGVHFYPILVGQEMQSWADLTETIADEFAHQAFTGEKETELIQAFWNNLDD”, the “soluble on expression in E. coli” value is recorded as “not soluble”.

Consider “MAQHVKFHQYFFQWMQLYKLDAVRPVTYRKYEMSHRQLVTLAPDLKMADLSRLTYQQLLNDYAETHERQTTMDFHRHLKGSLIDALEEGFIDRDPTRKAIIKGIKLEHHHHHH”, for which the “soluble on expression in E. coli” value is given as “not soluble”.

(Values after the DeepSol protein solubility set.)
